According to patent CN112409485A (BEIJING NIUAMBO BIOTECHNOLOGY CO LTD, dated 2021):

Biological target: T1, Human CEACAM6 Protein, Human, Recombinant (His Tag) (human, UniProt P40199 35-320)
T1 construct: Bought antigen; also called CEACAM6抗原; CEACAM6蛋白; not shown: His tag
T1 sequence (looked up): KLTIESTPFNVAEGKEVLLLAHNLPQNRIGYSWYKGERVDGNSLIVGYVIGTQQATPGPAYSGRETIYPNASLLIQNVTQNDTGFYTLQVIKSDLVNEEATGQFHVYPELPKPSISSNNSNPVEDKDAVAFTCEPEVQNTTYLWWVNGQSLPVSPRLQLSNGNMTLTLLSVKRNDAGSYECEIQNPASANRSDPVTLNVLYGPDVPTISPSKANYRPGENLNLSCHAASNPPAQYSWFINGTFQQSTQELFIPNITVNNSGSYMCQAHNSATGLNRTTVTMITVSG
Test: phage ELISA, phage-displayed VHH on coated CEACAM6

B1: 单域抗体NBC10 (VHH)
VHH: QVKLEESGGGLVQAGGSLRLSCAASGRTFSNYAMGWFREAPGKEREFVGSSSRSGSFSYLVDSVKGRFTIFRDNDKNTVYLQMNSLKPEDTAVYYCAAQTAIRAGVRDDYDFWGQGAQVTVSS
notes: Alpaca VHH
Question: Does B1 bind?
Answer: Result: binds

B2: 单域抗体NBC25 (VHH)
VHH: QVKLEESGGGLVQPGGSLRLSCAASGQTARAGIMGWFRQAPGKEREFVAAMGRSGASAYYQDSVQGRFTISRDNAQNTVFLQMNSLKPEDTAVYHCAAGNPIALTTAQYYDYWGQGTQVTVSS
notes: Alpaca VHH
Question: Does B2 bind?
Answer: Result: binds

B3: 单域抗体NBC36 (VHH)
VHH: QVQLVESGGGLVQAGGSLRLSCVVSGIDFRINNMGWYRQAPGTQRELVASVTPGRNTNYADSVKGRFTISRDNAQNTVYLQMNSLQPEDTAVYSCSAYGPSGAYWGQGTQVTVSS
notes: Alpaca VHH
Question: Does B3 bind?
Answer: Result: binds
